According to the RNAGym collection of RNA variant scans (doi:10.1073/pnas.2313332121):

B1: TPR t1 (parent)
chain: GACCAAUCUGCCCUCAGAGCUCGAGAACAUCUUCGGAUGCAGAGGAGGCAGGCUUCGGUGGCGCGAUAGCGCCAACGUCCUCAACCUCCAAUGCAUCCCACCACAUGAUGAUGCCUGAAGAGCCUUGGUUUUUUG

Variants of: B1
Test: polymerase ribozyme fitness, log enrichment relative to wild type (log ratio); higher = more active; in vitro selection for triplet polymerase activity
Procedure, shortened: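 A single round of triplicate in vitro selection, including frozen incubation at −7 °C, was applied to PCR-built, transcribed mutant libraries of each subunit of a heterodimeric triplet polymerase ribozyme. Illumina sequencing of input and output libraries retained genotypes with ≥10 input reads and ≥1 read per output. Fitness is the base-2 logarithm of genotype enrichment divided by wild-type enrichment, from inverse-variance-weighted replicate averages.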
For U14G G44C C86U C89U G120A, the “polymerase ribozyme fitness (log ratio)” value was -2.75. In the case of C13U A41G A46G C53A U78C, the “polymerase ribozyme fitness (log ratio)” value is reported as -0.474. In the case of C15A C40A C102U C114G, the “polymerase ribozyme fitness (log ratio)” value is reported as -6.22. In the case of U14C C53G A74C A83G C94U, the “polymerase ribozyme fitness (log ratio)” value is reported as -2.55. For U14C A16U C88U C101A U129G, the “polymerase ribozyme fitness (log ratio)” value was -5.73. In the case of U14G C101U U126G, the “polymerase ribozyme fitness (log ratio)” value is reported as -4.96. With C13U U59A G60A C80U A95C G120U the “polymerase ribozyme fitness (log ratio)” value was -1.94. With C13G G71U the “polymerase ribozyme fitness (log ratio)” value was -1.79. For C13U A83G, the “polymerase ribozyme fitness (log ratio)” value was 0.0266. With C13U G17A the “polymerase ribozyme fitness (log ratio)” value was -1.44. For C15A U78C, the “polymerase ribozyme fitness (log ratio)” value was -2.38. For U14A C20G C40U G45A G63C U96G U112A G117A, the “polymerase ribozyme fitness (log ratio)” value was -6.83. For C13G G60C, the “polymerase ribozyme fitness (log ratio)” value was -1.52. With C13U G60A the “polymerase ribozyme fitness (log ratio)” value was 0.0451. With C13U G60U the “polymerase ribozyme fitness (log ratio)” value was -0.0139. With C13U U59C A83U U96G the “polymerase ribozyme fitness (log ratio)” value was -1.05. For U14A G61C, the “polymerase ribozyme fitness (log ratio)” value was -3.93. For C13U A27U C49A U130C U132C, the “polymerase ribozyme fitness (log ratio)” value was -2.53. In the case of C15G A43U C56U, the “polymerase ribozyme fitness (log ratio)” value is reported as -3.19. For U14G G48U, the “polymerase ribozyme fitness (log ratio)” value was -2.8. In the case of C13U C98A, the “polymerase ribozyme fitness (log ratio)” value is reported as -4.9. With C13U C56G C62U A74G U96A A100C the “polymerase ribozyme fitness (log ratio)” value was -4.8. For C13U C34G G47U C72G U112A, the “polymerase ribozyme fitness (log ratio)” value was -5.6. For C15A A43G C53U, the “polymerase ribozyme fitness (log ratio)” value was -3.68. With U14A A46C C70A U112A A119G G122C the “polymerase ribozyme fitness (log ratio)” value was -2.7. For C15G C79U, the “polymerase ribozyme fitness (log ratio)” value was -1.96. For U14G C56A G120C, the “polymerase ribozyme fitness (log ratio)” value was -0.0635. For C13U C28G A43G G110C, the “polymerase ribozyme fitness (log ratio)” value was -0.443. For C15A G45U A84U C123U, the “polymerase ribozyme fitness (log ratio)” value was -2.4. With C15A A43U C76G the “polymerase ribozyme fitness (log ratio)” value was -3.73. For C13U G69A C88U, the “polymerase ribozyme fitness (log ratio)” value was -2.75. With C15A A66G U81C the “polymerase ribozyme fitness (log ratio)” value was -4.15. In the case of U14G U54C, the “polymerase ribozyme fitness (log ratio)” value is reported as -2.42. In the case of C15A G61A A83U G117C, the “polymerase ribozyme fitness (log ratio)” value is reported as -5.31. In the case of C15G C88G, the “polymerase ribozyme fitness (log ratio)” value is reported as -3.07. For C15A G52U A66U C94G, the “polymerase ribozyme fitness (log ratio)” value was -5.17. For C15A G48C C70U, the “polymerase ribozyme fitness (log ratio)” value was -3. With U14G G47A C89G C114G U116C G117A U133A the “polymerase ribozyme fitness (log ratio)” value was -6.43. For C13U C70A C72U, the “polymerase ribozyme fitness (log ratio)” value was -1.42. For U14G G42C A46C C53U G61A, the “polymerase ribozyme fitness (log ratio)” value was -4.45. For C13U G48U C73U U130G, the “polymerase ribozyme fitness (log ratio)” value was -0.119. For C13U C28G G120C, the “polymerase ribozyme fitness (log ratio)” value was -1.05. For C13U C56U A111G, the “polymerase ribozyme fitness (log ratio)” value was 0.163. With C13U C56U A90G the “polymerase ribozyme fitness (log ratio)” value was 0.402. For U14A U106A, the “polymerase ribozyme fitness (log ratio)” value was -1.9. In the case of U14A G19U U32G U81G A100G G120C, the “polymerase ribozyme fitness (log ratio)” value is reported as -7.12. For C15A C53U G63C, the “polymerase ribozyme fitness (log ratio)” value was -2.5. For C15G A43U C64A A84G C85G A90C U112G U132C, the “polymerase ribozyme fitness (log ratio)” value was -6.82. In the case of C13U C72U C94G, the “polymerase ribozyme fitness (log ratio)” value is reported as -1.35. With C13U C86U the “polymerase ribozyme fitness (log ratio)” value was -0.506. In the case of U14G A43U C88G, the “polymerase ribozyme fitness (log ratio)” value is reported as -3.5. In the case of U14A G71C G128A, the “polymerase ribozyme fitness (log ratio)” value is reported as -3.99. In the case of C13U G71A, the “polymerase ribozyme fitness (log ratio)” value is reported as -0.0397. In the case of C13U C40U C124U G135C, the “polymerase ribozyme fitness (log ratio)” value is reported as 0.605. For C13U G35C, the “polymerase ribozyme fitness (log ratio)” value was -3.79. In the case of U14G U21C G42U, the “polymerase ribozyme fitness (log ratio)” value is reported as -3.13. In the case of C15A C85G C94A, the “polymerase ribozyme fitness (log ratio)” value is reported as -3.92. With C15A C56G the “polymerase ribozyme fitness (log ratio)” value was -3.39. For U14C G71U A91U C114A A121U C124U, the “polymerase ribozyme fitness (log ratio)” value was -4.54. With U14G A111C G127A the “polymerase ribozyme fitness (log ratio)” value was -3.8. With C13G U21A G52C A91C G120C the “polymerase ribozyme fitness (log ratio)” value was -3.21. With U14G A37U C70U A74U U133G the “polymerase ribozyme fitness (log ratio)” value was -3.41. For U14A G52U C72U U116C G122U, the “polymerase ribozyme fitness (log ratio)” value was -4.11. For C13G G39U C115U, the “polymerase ribozyme fitness (log ratio)” value was -2.63. For C15G A66G G69C C89U, the “polymerase ribozyme fitness (log ratio)” value was -5.99. In the case of C15G C40U C56A C73U C80A C124G, the “polymerase ribozyme fitness (log ratio)” value is reported as -5.12. In the case of C15A C70U G93C C124G G128C, the “polymerase ribozyme fitness (log ratio)” value is reported as -4.17. In the case of U14C A50U U96C C115U A121U, the “polymerase ribozyme fitness (log ratio)” value is reported as -5.13. With C15A G48C C123G the “polymerase ribozyme fitness (log ratio)” value was -1.77. For C15A U33C C70U A111U, the “polymerase ribozyme fitness (log ratio)” value was -5.94. In the case of U14A C101U, the “polymerase ribozyme fitness (log ratio)” value is reported as -3.07. With U14A A37C C40A G69U the “polymerase ribozyme fitness (log ratio)” value was -4.24. With C13G G45U C89A G120U U130A the “polymerase ribozyme fitness (log ratio)” value was -3.41. With C13G G61A C94G U116A the “polymerase ribozyme fitness (log ratio)” value was -6.69. With C15A U33A G117A the “polymerase ribozyme fitness (log ratio)” value was -5.68. In the case of U14A A84C G122A, the “polymerase ribozyme fitness (log ratio)” value is reported as -1.57. For C13U A43C G71A C82A C98G C102A A105U G117C, the “polymerase ribozyme fitness (log ratio)” value was -6.77. For C13U A16C G48C U59G G60U A100C A121C, the “polymerase ribozyme fitness (log ratio)” value was -0.128. For C15A A29G, the “polymerase ribozyme fitness (log ratio)” value was -2.66. In the case of C15G C70G A90G C114G, the “polymerase ribozyme fitness (log ratio)” value is reported as -6.41. With C13U G52U G110U U133C the “polymerase ribozyme fitness (log ratio)” value was -1.33. With C13G G39U U54A the “polymerase ribozyme fitness (log ratio)” value was -2.59. For U14A G48A U59A C89A, the “polymerase ribozyme fitness (log ratio)” value was -5.96. In the case of C13U C56A U96G, the “polymerase ribozyme fitness (log ratio)” value is reported as -0.637.
